We go through one molecule from patent publication US20220380801A1, “TRIPARTITE SYSTEMS FOR PROTEIN DIMERIZATION AND METHODS OF USE” (priority 2019, published 2022).

Test [1] concerns NanoLuc-PEST reporter in HEK293 cells. The test is described as follows: Transcriptional regulation assay (split transcription factor), NanoLuc-PEST reporter. Format: cell-based, human. From the text:
The iDimerize regulated transcription system (Takara) was used to test the ability of PRSIM-based CIDs to regulate gene expression. […] The DBD and AD are separately fused to the two protein components of a CID such that, only in the presence of the small molecule inducer, the AD is brought into close proximity to the DBD, recruiting the transcription machinery to a promoter harbouring the DBD recognition sites. The iDimerize regulated transcription system (Takara) provides two vectors, pHet-Act1-2 and pZFHD1-Luciferase. […]
All transcriptional regulation assays were performed in adherent HEK293 cells cultured in 384-well plates. Cells enzymatically dissociated from a tissue culture flask were counted and plated at 7.5×10^3 cells/well in a 384-well plate. […] On day 3, wells were treated with different concentrations of either A/C heterodimeriser (for the FRB:FKBP12 control), simeprevir or with vehicle control, and 24 hours later luminescence was quantified with an Envision plate reader immediately following addition of SteadyGlo luciferase substrate (Promega) or Nano-Glo Vivazine luciferase substrate (Promega). Alternatively, reverse transfections were carried out on Day 1, addition of dimeriser on Day 2 and luminescence quantified 24 hours later on Day 3. […]

The subject of test [2] is HCV NS3/4A PR K136D. The experiment in a line: Biacore 8K binding kinetics, mutant protease to PRSIM_23. Set-up: species or system Hepatitis C virus subtype 1a. The protocol:
(§1) The scFv and Tn3 PRSIM binding molecules were covalently immobilised to a CM5 chip surface using standard amine coupling techniques at a concentration of 1 μg/ml in 10 mM sodium acetate pH 4.5.
(§2) The HCV NS3/4A PR (S139A), or BSA control, was diluted 1:4 (1.25-20 nM)±10 nM simeprevir in 10 mM Hepes pH 7.4, 150 mM NaCl, 0.05% Surfactant P20, 0.01% DMSO, ensuring constant simeprevir and DMSO concentration. The samples were flowed over the chip at 50 μl/min using single cycle kinetics, with 120 sec association and 600 sec dissociation. The chip surface was regenerated with two 20 sec pulses of 10 mM Glycine-HCl pH 3.0. The final sensorgrams were analysed using the Biacore 8K Evaluation Software and the affinity constant KD was determined using a 1:1 binding model. The same method was used for measuring the affinity of the HCV NS3/4A PR mutants for PRSIM_23 with minor deviations. The mutants were diluted 1:4 (2.5-40 nM)±simeprevir in 10 mM Hepes pH 7.4, 150 mM NaCl, 0.05% Surfactant P20, 0.08% DMSO, ensuring constant simeprevir and DMSO concentration. The samples were flowed over the chip at 50 μl/min using single cycle kinetics, with 180 sec association and 600 sec dissociation.
Background: Surface plasmon resonance follows binding to a sensor surface in real time, without labels.

Test [3] deals with HCV NS3/4A PR K136N. The test is described as above. Set-up: species or system Hepatitis C virus subtype 1a. The protocol:
as §1, §2

The test system of test [4] is HCV NS3/4A PR D168E. The test is described as above. The arrangement: species or system Hepatitis C virus subtype 1a. The following applies: 20 nM simeprevir. The protocol:
as §1, §2

B1: PRSIM_23: Tn3 protein specific for HCV NS3/4A PR (S139A):simeprevir complex, SEQ ID NO: 5 (protein)
chain: RLDAPSQIEVKDVTDTTALITWVDPRYDDIWWFELTYGIKDVPGDRTTIKLYLNDPYYSIGNLKPDTEYEVSLISYTGDSYSRSGSNPAKITFKTGL
modifications: PRSIM_23
Take B1: the “fold change of NanoLuc-PEST expression” value in test [1] (one copy of the DBD fusion partner) turned out to be 55 fold; in test [1] (three copies of the DBD fusion partner) it was 100 fold. For the same molecule, the “decrease in affinity for PRSIM_23 compared to ‘Wt’” value in test [2] (K136D versus ‘WT’ (S139A)) and in test [3] (K136N versus ‘WT’ (S139A)) was 6-7 fold each time. Besides, the Rmax was 168 RUs in test [2] (K136D, 800 nM simeprevir); 198 RUs in test [3] (K136N, 40 nM simeprevir); 199 RUs in test [4]. The ka in test [2] (K136D, 800 nM simeprevir) came to 1.69e+10 M⁻¹ s⁻¹; in test [3] (K136N, 40 nM simeprevir), 5.31e+08 M⁻¹ s⁻¹; in test [4], 1.47e+09 M⁻¹ s⁻¹. Also, the kd in test [2] (K136D, 800 nM simeprevir) stood at 373 s⁻¹; in test [3] (K136N, 40 nM simeprevir), 20.4 s⁻¹; in test [4] it was 21.4 s⁻¹.
